# B1: Escherichia coli FtsZ (natural protein)
# chain: MFEPMELTNDAVIKVIGVGGGGGNAVEHMVRERIEGVEFFAVNTDAQALRKTAVGQTIQIGSGITKGLGAGANPEVGRNAADEDRDALRAALEGADMVFIAAGMGGGTGTGAAPVVAEVAKDLGILTVAVVTKPFNFEGKKRMAFAEQGITELSKHVDSLITIPNDKLLKVLGRGISLLDAFGAANDVLKGAVQGIAELITRPGLMNVDFADVRTVMSEMGYAMMGSGVASGEDRAEEAAEMAISSPLLEDIDLSGARGVLVNITAGFDLRLDEFETVGNTIRAFASDNATVVIGTSLDPDMNDELRVTVVATGIGMDKRPEITLVTNKQVQQPVMDRYQQHGMAPLTQEQKPVAKVVNDNAPQTAKEPDYLDIPAFLRKQAD
# What was measured:
# [1] = target: His-ZapA (E. coli) (UniProt P0ADS2); experiment: AUC
# [2] = target: His-ZapA (E. coli) (UniProt P0ADS2); experiment: composition-gradient static light scattering
# [3] = target: Escherichia coli FtsZ (E. coli) (UniProt P0A9A6); experiment: co-sedimentation
# [4] = target: ZapA (Escherichia coli) (UniProt P0ADS2); details: cited from earlier work
# [5] = target: the molecule itself; experiment: negative-stain electron microscopy
molecule,measurement,setting,value
His-ZapA (from UniProt P0ADS2 1-109) (natural protein),stoichiometry N,[1],4
same,stoichiometry N,[2],4
ZapA (His tag removed by enterokinase digestion of His-ZapA) (from UniProt P0ADS2 1-109) (natural protein),stoichiometry N,[3],1
ZapA (from UniProt P0ADS2),Kd,[4],320 nM
B1,binding result,[5],binds

# — article PMC2778355 (Biochemistry, 2009)
